# Measured values reported in paper PMC7005674.
# Biological target: T1, Rap1-Halo (Saccharomyces cerevisiae) (UniProt P11938)
# T1 sequence: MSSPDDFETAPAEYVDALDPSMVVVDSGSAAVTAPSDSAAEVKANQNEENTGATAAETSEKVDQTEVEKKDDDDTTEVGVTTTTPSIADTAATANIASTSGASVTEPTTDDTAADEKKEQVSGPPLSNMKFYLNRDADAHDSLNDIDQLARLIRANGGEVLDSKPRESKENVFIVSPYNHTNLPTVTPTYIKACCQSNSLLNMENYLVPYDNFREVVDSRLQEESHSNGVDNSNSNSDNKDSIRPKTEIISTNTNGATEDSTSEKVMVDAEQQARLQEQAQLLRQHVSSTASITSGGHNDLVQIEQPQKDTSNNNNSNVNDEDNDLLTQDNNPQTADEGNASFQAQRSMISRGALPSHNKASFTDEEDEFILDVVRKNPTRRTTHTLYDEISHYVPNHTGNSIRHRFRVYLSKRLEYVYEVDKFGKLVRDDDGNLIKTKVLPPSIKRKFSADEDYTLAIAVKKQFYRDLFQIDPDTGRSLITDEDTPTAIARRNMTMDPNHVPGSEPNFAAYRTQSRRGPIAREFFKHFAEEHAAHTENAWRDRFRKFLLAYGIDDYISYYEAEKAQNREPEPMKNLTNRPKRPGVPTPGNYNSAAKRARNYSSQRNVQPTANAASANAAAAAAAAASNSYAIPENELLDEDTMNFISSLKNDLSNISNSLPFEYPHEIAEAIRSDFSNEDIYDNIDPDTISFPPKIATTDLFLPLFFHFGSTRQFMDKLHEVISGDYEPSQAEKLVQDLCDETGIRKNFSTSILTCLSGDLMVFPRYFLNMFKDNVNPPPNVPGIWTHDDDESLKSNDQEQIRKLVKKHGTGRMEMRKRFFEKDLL
# Assay: EMSA
# Conditions: EMSA (DNA): 50 mM HEPES pH 7.5, 130 mM KCl, 10% glycerol, 0.005% Tween 20, 2 mM Trolox, 3.2% glucose, 50 ng/ul poly-d(I-C), 10 min, room temperature; smTIRF …
row,Sequence,Kd
1,CACACTGTGCCAAGTACTTACGCGGCCGCCCTGGAGAATCCCGGTGCCGAGGTACATCTGTGCACCGTAGACAGCTCTAGCACCGCTTAAACGCACGTACGCGCTGTCCCCCGCGTTTTAACCGCCAAGGGGATTACTCCCTAGTCTCCAGGCACGTGTCAGATACTGCAGAGATCTCTAGATCCATGGAGTACTTGGTCTCAAACC (double strand) [MN S1+3],48.5 nM
2,CACACTGTGCCAAGTACTTACGCGGCCGCCCTGGAGAATCCCGGTGCCGAGGCCGTACATCTGTGCACCGACAGCTCTAGCACCGCTTAAACGCACGTACGCGCTGTCCCCCGCGTTTTAACCGCCAAGGGGATTACTCCCTAGTCTCCAGGCACGTGTCAGATACTGCAGAGATCTCTAGATCCATGGAGTACTTGGTCTCAAACC (double strand) [MN S1+6],62.7 nM
3,CACACTGTGCCAAGTACTTACGCGGCCGCCCTGGAGAATCCCGGTGCCGTACATCTGTGCACCGTCGTAGACAGCTCTAGCACCGCTTAAACGCACGTACGCGCTGTCCCCCGCGTTTTAACCGCCAAGGGGATTACTCCCTAGTCTCCAGGCACGTGTCAGATACTGCAGAGATCTCTAGATCCATGGAGTACTTGGTCTCAAACC (double strand) [MN S1],76.4 nM
